Data reported in US20240245796A1 (PROFOUNDBIO US, published 2024).

Legend:
[1] = target: T1, human FOLR3 extracellular domain linked to His tag (human, UniProt P41439 23-245, limits assumed); experiment: BLI, global 1:1 fit (125 nM row); all responses below quantification
T1 construct: extracellular domain; Antigen in solution in BLI; also called Hu-FRg; not shown: His tag

[2] = target: T2, mouse FOLR1 extracellular domain linked to His tag (mouse, UniProt P35846 25-232, limits assumed); experiment: BLI, global 1:1 fit (125 nM row); only the 500 nM response quantifiable
T2 construct: extracellular domain; Antigen in solution in BLI; also called Mouse-Ag; not shown: His tag

[3] = target: T3, human FOLR2 extracellular domain linked to His tag (human, UniProt P14207 17-230, limits assumed); experiment: BLI, Ag 500 nM over Ab on anti-hIgG Fc tip
T3 construct: extracellular domain; Antigen in solution in BLI; also called Hu-FRb; not shown: His tag

[4] = target: T4, human FOLR1 extracellular domain linked to His tag (human, UniProt P15328 25-233, limits assumed); experiment: BLI, Ag 500 nM over Ab on anti-hIgG Fc tip
T4 construct: extracellular domain; It may be the same product as m13; also called Hu-FRα; Hu-Ag; not shown: His tag

[5] = target: T5, rat FOLR1 extracellular domain linked to His tag (rat); experiment: BLI, global 1:1 fit (250 nM row); all responses below quantification
T5 construct: extracellular domain; Antigen in solution in BLI; also called Rat-Ag

[6] = target: T3, human FOLR2 extracellular domain linked …; experiment: BLI, global 1:1 fit (62.5 nM row)
[7] = target: T4, human FOLR1 extracellular domain linked …; experiment: BLI, global 1:1 fit (62.5 nM row)
[8] = target: T6, cynomolgus monkey FOLR1 extracellular domain linked to His tag (cynomolgus monkey, UniProt A0A2K5U044 25-233); experiment: BLI, global 1:1 fit (250 nM row)
T6 construct: extracellular domain; Antigen in solution in BLI; It may be the same product as m14; also called Cyno-Ag; not shown: His tag

[9] = target: T4, human FOLR1 extracellular domain linked …; experiment: BLI, global 1:1 fit (250 nM row)
[10] = target: T6, cynomolgus monkey FOLR1 extracellular …; experiment: BLI, global 1:1 fit (15.6 nM row)
[11] = target: T4, human FOLR1 extracellular domain linked …; experiment: BLI, global 1:1 fit (15.6 nM row)
[12] = target: T3, human FOLR2 extracellular domain linked …; experiment: BLI, Ag 250 nM over Ab on anti-hIgG Fc tip
[13] = target: T4, human FOLR1 extracellular domain linked …; experiment: BLI, Ag 250 nM over Ab on anti-hIgG Fc tip
[14] = target: T3, human FOLR2 extracellular domain linked …; experiment: BLI, global 1:1 fit (125 nM row)
[15] = target: T4, human FOLR1 extracellular domain linked …; experiment: BLI, global 1:1 fit (125 nM row)
[16] = target: T3, human FOLR2 extracellular domain linked …; experiment: BLI, Ag 62.5 nM over Ab on anti-hIgG Fc tip
[17] = target: T4, human FOLR1 extracellular domain linked …; experiment: BLI, Ag 62.5 nM over Ab on anti-hIgG Fc tip
[18] = target: T2, mouse FOLR1 extracellular domain linked …; experiment: BLI, global 1:1 fit (62.5 nM row); only the 500 nM response quantifiable
[19] = target: T2, mouse FOLR1 extracellular domain linked …; experiment: BLI, global 1:1 fit (31.3 nM row); only the 500 nM response quantifiable
[20] = target: T2, mouse FOLR1 extracellular domain linked …; experiment: BLI, Ag 500 nM over Ab on anti-hIgG Fc tip
[21] = target: T6, cynomolgus monkey FOLR1 extracellular …; experiment: BLI, Ag 500 nM over Ab on anti-hIgG Fc tip
[22] = target: T4, human FOLR1 extracellular domain linked …; experiment: BLI, Ag 500 nM over Ab on anti-hIgG Fc tip; remark: listed apart in the source

T2 sequence (P35846 25-232 limits assumed): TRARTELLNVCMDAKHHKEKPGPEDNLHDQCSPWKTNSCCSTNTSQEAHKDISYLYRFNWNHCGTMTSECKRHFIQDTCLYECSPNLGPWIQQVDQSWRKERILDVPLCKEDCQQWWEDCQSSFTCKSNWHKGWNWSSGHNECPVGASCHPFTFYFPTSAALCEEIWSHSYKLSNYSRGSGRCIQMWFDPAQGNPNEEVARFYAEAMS
T1 sequence (P41439 23-245 limits assumed): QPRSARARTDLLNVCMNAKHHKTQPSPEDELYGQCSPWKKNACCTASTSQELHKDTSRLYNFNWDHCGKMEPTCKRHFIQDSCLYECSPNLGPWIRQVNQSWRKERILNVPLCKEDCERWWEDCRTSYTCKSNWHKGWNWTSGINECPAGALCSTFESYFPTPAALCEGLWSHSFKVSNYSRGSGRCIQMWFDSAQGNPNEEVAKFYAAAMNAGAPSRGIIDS
T3 sequence (P14207 17-230 limits assumed): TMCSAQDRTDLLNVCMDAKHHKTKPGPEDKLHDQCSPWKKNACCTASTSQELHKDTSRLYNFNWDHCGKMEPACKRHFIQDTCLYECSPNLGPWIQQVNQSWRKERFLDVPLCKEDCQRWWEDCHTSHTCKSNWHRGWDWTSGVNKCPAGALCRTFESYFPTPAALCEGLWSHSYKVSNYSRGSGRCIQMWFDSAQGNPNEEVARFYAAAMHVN
T6 sequence (A0A2K5U044 entry or part of it): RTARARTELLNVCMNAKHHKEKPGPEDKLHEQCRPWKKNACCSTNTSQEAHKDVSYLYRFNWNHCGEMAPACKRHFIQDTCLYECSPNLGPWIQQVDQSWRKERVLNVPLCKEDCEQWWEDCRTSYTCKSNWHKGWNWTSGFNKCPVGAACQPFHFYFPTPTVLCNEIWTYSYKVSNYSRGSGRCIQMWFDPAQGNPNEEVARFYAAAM
T4 sequence (P15328 25-233 limits assumed): as the sequence (A0A2K5U044 entry or part of it) above, with T2I, R4W, K37R, P146A, Y171H counted along it

B1: F131 (antibody, V domains shown)
VH: EVQLLESGGGVVQPGRSLRLSCAASGFTFSSYGMHWVRQAPGKGLEWVAVISYDGSNKYYADSVKGRFTISRANSKNTLYLQMNSLRAEDTAVYYCARPRAYYGAYGSSFDYWGQGTQVTVSS
VL: EIVMTQSPSSVSASVGDRVAITCRASQGISSWLAWYQQKPGKAPKLLIYAASSLQSGVPSRFSGSGSGTDFTLTISSLQPEDFATYYCQQSYSTPLTFGGGTKVDIK
notes: also called clone F131; F131 mAb
[1]
  koff: 0.217 s⁻¹
  kon: 1660 M⁻¹ s⁻¹
[2]
  Kd: 2960 nM
  koff: 0.301 s⁻¹
  kon: 102000 M⁻¹ s⁻¹
[3]
  Response: 0.037
[4]
  Response: 0.192
[5]
  koff: 1.03 s⁻¹
  kon: 5490 M⁻¹ s⁻¹
[6]
  Kd: 142 nM
  koff: 0.0784 s⁻¹
  kon: 552000 M⁻¹ s⁻¹
[7]
  Kd: 5.3 nM
  koff: 0.0012 s⁻¹
  kon: 226000 M⁻¹ s⁻¹
[8]
  Kd: 8.15 nM
  koff: 0.00157 s⁻¹
  kon: 193000 M⁻¹ s⁻¹
[9]
  Kd: 1.53 nM
  koff: 0.000338 s⁻¹
  kon: 221000 M⁻¹ s⁻¹
[10]
  Kd: 8.15 nM
  koff: 0.00157 s⁻¹
  kon: 193000 M⁻¹ s⁻¹
[11]
  Kd: 1.53 nM
  koff: 0.000338 s⁻¹
  kon: 221000 M⁻¹ s⁻¹
[12]
  Response: 0.0207
[13]
  Response: 0.178
[14]
  Kd: 142 nM
  koff: 0.0784 s⁻¹
  kon: 552000 M⁻¹ s⁻¹
[15]
  Kd: 5.3 nM
  koff: 0.0012 s⁻¹
  kon: 226000 M⁻¹ s⁻¹
[16]
  Response: 0.0356
[17]
  Response: 0.117
[18]
  Kd: 2960 nM
  koff: 0.301 s⁻¹
  kon: 102000 M⁻¹ s⁻¹
[19]
  Kd: 2960 nM
  koff: 0.301 s⁻¹
  kon: 102000 M⁻¹ s⁻¹
[20]
  Response: 0.0167
[21]
  Response: 0.219
[22]
  Response: 0.181

B2: F131-LD038 (antibody, V domains shown)
VH: EVQLLESGGGVVQPGRSLRLSCAASGFTFSSYGMHWVRQAPGKGLEWVAVISYDGSNKYYADSVKGRFTISRANSKNTLYLQMNSLRAEDTAVYYCARPRAYYGAYGSSFDYWGQGTQVTVSS
VL: EIVMTQSPSSVSASVGDRVAITCRASQGISSWLAWYQQKPGKAPKLLIYAASSLQSGVPSRFSGSGSGTDFTLTISSLQPEDFATYYCQQSYSTPLTFGGGTKVDIK
modifications: drug-linker LD038 (PB038, maleimide-PEG unit-Val-Cit-PAB-exatecan) on cysteines freed by TCEP reduction; positions not given
notes: Antibody-drug conjugate of F131 (IgG1) with LD038; also called anti-huFOLR-1 conjugate F131-LD038; F131-038
[1]
  koff: 0.233 s⁻¹
[2]
  Kd: 2870 nM
  koff: 0.266 s⁻¹
  kon: 92600 M⁻¹ s⁻¹
[3]
  Response: 0.0427
[4]
  Response: 0.222
[5]
  koff: 0.224 s⁻¹
[6]
  Kd: 84.4 nM
  koff: 0.0813 s⁻¹
  kon: 963000 M⁻¹ s⁻¹
[7]
  Kd: 4.79 nM
  koff: 0.00121 s⁻¹
  kon: 252000 M⁻¹ s⁻¹
[8]
  Kd: 8.82 nM
  koff: 0.0016 s⁻¹
  kon: 181000 M⁻¹ s⁻¹
[9]
  Kd: 4.8 nM
  koff: 0.00107 s⁻¹
  kon: 224000 M⁻¹ s⁻¹
[10]
  Kd: 8.82 nM
  koff: 0.0016 s⁻¹
  kon: 181000 M⁻¹ s⁻¹
[11]
  Kd: 4.8 nM
  koff: 0.00107 s⁻¹
  kon: 224000 M⁻¹ s⁻¹
[12]
  Response: 0.0243
[13]
  Response: 0.201
[14]
  Kd: 84.4 nM
  koff: 0.0813 s⁻¹
  kon: 963000 M⁻¹ s⁻¹
[15]
  Kd: 4.79 nM
  koff: 0.00121 s⁻¹
  kon: 252000 M⁻¹ s⁻¹
[16]
  Response: 0.0379
[17]
  Response: 0.138
[18]
  Kd: 2870 nM
  koff: 0.266 s⁻¹
  kon: 92600 M⁻¹ s⁻¹
[19]
  Kd: 2870 nM
  koff: 0.266 s⁻¹
  kon: 92600 M⁻¹ s⁻¹
[20]
  Response: 0.0125
[21]
  Response: 0.186
[22]
  Response: 0.205
